Measurements as given in PMC6211538.

Tests used:
[1] = target: AMPA receptor GluA2 from rat with deletion of the disordered intracellular C-terminal domain (GluA2cryst) (rat) (UniProt P19491); assay: small-angle neutron scattering (SANS), molecular weight by Fischer analysis; with 1 mM AMPA, pH 7.5; 0.31 mg/ml (0.84 uM) GluA2 in D2O-based buffer with 0.5 mM matched-out deuterated DDM; 10°C; oligomeric state from MW against the construct's 368 kDa
[2] = target: AMPA receptor GluA2 from rat with deletion of the disordered intracellular C-terminal domain (GluA2cryst) (rat) (UniProt P19491); assay: small-angle neutron scattering (SANS), molecular weight by Fischer analysis; with 1 mM GYKI-53655; 0.31 mg/ml (0.84 uM) GluA2 in D2O-based buffer with 0.5 mM matched-out deuterated DDM; 10°C; oligomeric state from MW against the construct's 368 kDa
[3] = target: AMPA receptor GluA2 from rat with deletion of the disordered intracellular C-terminal domain (GluA2cryst) (rat) (UniProt P19491); assay: small-angle neutron scattering (SANS), molecular weight by Fischer analysis; resting state (apo); 0.20 mg/ml (0.54 uM) GluA2 in D2O-based buffer, 20 mM Tris-DCl pH 7.5, 100 mM NaCl, 0.5 mM matched-out deuterated DDM; 10°C; oligomeric state from MW against the construct's 368 kDa
[4] = target: AMPA receptor GluA2 from rat with deletion of the disordered intracellular C-terminal domain (GluA2cryst) (rat) (UniProt P19491); assay: small-angle neutron scattering (SANS), molecular weight by Fischer analysis; with 10 mM AMPA, pH 5.5; 0.17 mg/ml (0.46 uM) GluA2 in D2O-based buffer with 0.5 mM matched-out deuterated DDM; 10°C; oligomeric state from MW against the construct's 368 kDa

Measured: stoichiometry N

AMPA receptor GluA2 from rat with deletion of the disordered intracellular C-terminal domain (GluA2cryst) (from UniProt P19491 22-883)
4: all assays above
